# Measured values: publication PMC7279355 (International Journal of Molecular Sciences, 2020)
# Ends that are not written are not given here.
# B1: ERXNK (peptide)
# chain: ERYNK
# modifications: not fully specified; X (position 3) = biphenyl-conjugated bromotyrosine
# B2: XGGG (peptide)
# chain: YGGG
# modifications: not fully specified; X (position 1) = biphenyl-conjugated bromotyrosine
# B3: GXG (peptide)
# chain: GYG
# modifications: not fully specified; X (position 2) = biphenyl-conjugated bromotyrosine
# B4: XCSE (peptide)
# chain: YCSE
# modifications: not fully specified; X (position 1) = biphenyl-conjugated bromotyrosine
# B5: SXR (peptide)
# chain: SYR
# modifications: not fully specified; X (position 2) = biphenyl-conjugated bromotyrosine
# B6: XHP (peptide)
# chain: YHP
# modifications: not fully specified; X (position 1) = biphenyl-conjugated bromotyrosine
# B7: WXG (peptide)
# chain: WYG
# modifications: not fully specified; X (position 2) = biphenyl-conjugated bromotyrosine
# B8: XGGGG (peptide)
# chain: YGGGG
# modifications: not fully specified; X (position 1) = biphenyl-conjugated bromotyrosine
# B9: XRRRR (peptide)
# chain: YRRRR
# modifications: not fully specified; X (position 1) = biphenyl-conjugated bromotyrosine
# B10: XNH (peptide)
# chain: YNH
# modifications: not fully specified; X (position 1) = biphenyl-conjugated bromotyrosine
# B11: WRXNQ (peptide)
# chain: WRYNQ
# modifications: not fully specified; X (position 3) = biphenyl-conjugated bromotyrosine
# B12: YXC (peptide)
# chain: Tyr-Tyr-Cys
# modifications: not fully specified (residue 2)
# B13: RXN (peptide)
# chain: RYN
# modifications: not fully specified; X (position 2) = biphenyl-conjugated bromotyrosine
# B14: NXR (peptide)
# chain: NYR
# modifications: not fully specified; X (position 2) = biphenyl-conjugated bromotyrosine
# B15: QXQ (peptide)
# chain: QYQ
# modifications: not fully specified; X (position 2) = biphenyl-conjugated bromotyrosine
# B16: CXR (peptide)
# chain: CYR
# modifications: not fully specified; X (position 2) = biphenyl-conjugated bromotyrosine
# B17: CXA (peptide)
# chain: CYA
# modifications: not fully specified; X (position 2) = biphenyl-conjugated bromotyrosine
# B18: XGG (peptide)
# chain: YGG
# modifications: not fully specified; X (position 1) = biphenyl-conjugated bromotyrosine
# B19: XNL (peptide)
# chain: YNL
# modifications: not fully specified; X (position 1) = biphenyl-conjugated bromotyrosine
# B20: XGGGGG (peptide)
# chain: YGGGGG
# modifications: not fully specified; X (position 1) = biphenyl-conjugated bromotyrosine
# B21: WRXNN (peptide)
# chain: WRYNN
# modifications: not fully specified; X (position 3) = biphenyl-conjugated bromotyrosine
# Target: T1, PD-L1, histidine (His)-tagged (UniProt Q9NZQ7 19-238)
# T1 construct: PD-L1 (programmed cell death-ligand 1) of the AlphaLISA PD-1/PD-L1 kit; Held on anti-His-conjugated acceptor beads; also called His-tagged PD-L1; programmed cell death-ligand 1; source: bought: PerkinElmer AlphaLISA assay kit (AL356 HV/C/F)
# T1 sequence (Q9NZQ7 19-238): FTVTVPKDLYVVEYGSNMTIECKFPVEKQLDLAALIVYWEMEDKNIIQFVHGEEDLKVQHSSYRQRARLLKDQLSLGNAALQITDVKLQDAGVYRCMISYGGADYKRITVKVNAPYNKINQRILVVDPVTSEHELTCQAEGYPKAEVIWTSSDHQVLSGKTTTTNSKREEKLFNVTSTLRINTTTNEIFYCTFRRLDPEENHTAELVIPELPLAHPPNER
# Experiment: AlphaScreen or HTRF; AlphaLISA kit AL356 HV/C/F (PerkinElmer), competition: biotin-conjugated PD-1 on streptavidin-coated donor beads, His-tagged PD-L1 on anti-His acceptor beads; 2 uL each of inhibitor dilution, PD-L1 (25 nM), PD-1 (25 nM) and the two beads in 10 uL; 25 °C, 90 min; IC50 from sigmoidal fit
# Conditions: both partners purified
row,Binder,IC50 [µM]
1,B1,15.6
2,B2,6770
3,B3,676
4,B4,1560
5,B5,796
6,B6,359
7,B7,405
8,B8,648
9,B9,436
10,B10,313
11,B11,163
12,B12,465
13,B13,405
14,B14,982
15,B15,1960
16,B16,550
17,B17,665
18,B18,6500
19,B19,855
20,B20,846
21,B21,157
